Measured values: IntAct's records for PubMed 16368681

B1: Protein disulfide-isomerase (Saccharomyces cerevisiae), P17967 (parent)
chain: MKFSAGAVLSWSSLLLASSVFAQQEAVAPEDSAVVKLATDSFNEYIQSHDLVLAEFFAPWCGHCKNMAPEYVKAAETLVEKNITLAQIDCTENQDLCMEHNIPGFPSLKIFKNSDVNNSIDYEGPRTAEAIVQFMIKQSQPAVAVVADLPAYLANETFVTPVIVQSGKIDADFNATFYSMANKHFNDYDFVSAENADDDFKLSIYLPSAMDEPVVYNGKKADIADADVFEKWLQVEALPYFGEIDGSVFAQYVESGLPLGYLFYNDEEELEEYKPLFTELAKKNRGLMNFVSIDARKFGRHAGNLNMKEQFPLFAIHDMTEDLKYGLPQLSEEAFDELSDKIVLESKAIESLVKDFLKGDASPIVKSQEIFENQDSSVFQLVGKNHDEIVNDPKKDVLVLYYAPWCGHCKRLAPTYQELADTYANATSDVLIAKLDHTENDVRGVVIEGYPTIVLYPGGKKSESVVYQGSRSLDSLFDFIKENGHFDVDGKALYEEAQEKAAEEADADAELADEEDAIHDEL
partner: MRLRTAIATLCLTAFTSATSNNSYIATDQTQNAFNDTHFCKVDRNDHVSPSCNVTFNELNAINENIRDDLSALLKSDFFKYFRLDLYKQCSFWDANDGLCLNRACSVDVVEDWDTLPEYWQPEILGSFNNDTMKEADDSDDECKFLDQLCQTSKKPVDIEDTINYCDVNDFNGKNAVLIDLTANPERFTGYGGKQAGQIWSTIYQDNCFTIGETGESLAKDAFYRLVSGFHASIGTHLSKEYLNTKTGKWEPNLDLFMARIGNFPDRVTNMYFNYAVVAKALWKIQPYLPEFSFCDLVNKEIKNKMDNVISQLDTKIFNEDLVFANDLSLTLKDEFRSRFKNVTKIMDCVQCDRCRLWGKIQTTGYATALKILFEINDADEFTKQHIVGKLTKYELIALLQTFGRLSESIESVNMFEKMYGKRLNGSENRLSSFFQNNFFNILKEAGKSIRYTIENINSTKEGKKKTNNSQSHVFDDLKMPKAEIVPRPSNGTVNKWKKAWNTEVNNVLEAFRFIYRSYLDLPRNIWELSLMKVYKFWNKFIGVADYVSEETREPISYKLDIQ
B2: Protein disulfide-isomerase (Saccharomyces cerevisiae), P17967 (parent)
chain: B1 chain

Variants of: B1
Conditions: with ero1_yeast ERO1, Q03103

Row | effect of a mutation on the interaction | Variant
1 | decreasing interaction | MKFSAGAVLSWSSLLLASSVFAQQEAVAPEDSAVVKLATDSFNEYIQSHDLVLAEFFAPWCGHCKNMAPEYVKAAETLVEKNITLAQIDCTENQDLCMEHNIPGFPSLKIFKNSDVNNSIDYEGPRTAEAIVQFMIKQSQPAVAVVADLPAYLANETFVTPVIVQSGKIDADFNATFYSMANKHFNDYDFVSAENADDDFKLSIYLPSAMDEPVVYNGKKADIADADVFEKWLQVEALPYFGEIDGSVFAQYVESGLPLGYLFYNDEEELEEYKPLFTELAKKNRGLMNFVSIDARKFGRHAGNLNMKEQFPLFAIHDMTEDLKYGLPQLSEEAFDELSDKIVLESKAIESLVKDFLKGDASPIVKSQEIFENQDSSVFQLVGKNHDEIVNDPKKDVLVLYYAPWAGHAKRLAPTYQELADTYANATSDVLIAKLDHTENDVRGVVIEGYPTIVLYPGGKKSESVVYQGSRSLDSLFDFIKENGHFDVDGKALYEEAQEKAAEEADADAELADEEDAIHDEL [C406A;C409A]
2 | decreasing interaction | MKFSAGAVLSWSSLLLASSVFAQQEAVAPEDSAVVKLATDSFNEYIQSHDLVLAEFFAPWAGHAKNMAPEYVKAAETLVEKNITLAQIDCTENQDLCMEHNIPGFPSLKIFKNSDVNNSIDYEGPRTAEAIVQFMIKQSQPAVAVVADLPAYLANETFVTPVIVQSGKIDADFNATFYSMANKHFNDYDFVSAENADDDFKLSIYLPSAMDEPVVYNGKKADIADADVFEKWLQVEALPYFGEIDGSVFAQYVESGLPLGYLFYNDEEELEEYKPLFTELAKKNRGLMNFVSIDARKFGRHAGNLNMKEQFPLFAIHDMTEDLKYGLPQLSEEAFDELSDKIVLESKAIESLVKDFLKGDASPIVKSQEIFENQDSSVFQLVGKNHDEIVNDPKKDVLVLYYAPWCGHCKRLAPTYQELADTYANATSDVLIAKLDHTENDVRGVVIEGYPTIVLYPGGKKSESVVYQGSRSLDSLFDFIKENGHFDVDGKALYEEAQEKAAEEADADAELADEEDAIHDEL [C61A;C64A]

Variants of: B2
Conditions: with rnas1_bovin RNASE1, P61823
Chain of rnas1_bovin RNASE1, P61823 (P61823 whole entry): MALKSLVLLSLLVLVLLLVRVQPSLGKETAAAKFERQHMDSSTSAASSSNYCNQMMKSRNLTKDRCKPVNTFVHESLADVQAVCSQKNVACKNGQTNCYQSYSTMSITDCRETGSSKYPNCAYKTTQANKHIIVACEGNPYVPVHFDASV

Row | effect of a mutation on the interaction | Variant
3 | decreasing interaction | MKFSAGAVLSWSSLLLASSVFAQQEAVAPEDSAVVKLATDSFNEYIQSHDLVLAEFFAPWAGHAKNMAPEYVKAAETLVEKNITLAQIDCTENQDLCMEHNIPGFPSLKIFKNSDVNNSIDYEGPRTAEAIVQFMIKQSQPAVAVVADLPAYLANETFVTPVIVQSGKIDADFNATFYSMANKHFNDYDFVSAENADDDFKLSIYLPSAMDEPVVYNGKKADIADADVFEKWLQVEALPYFGEIDGSVFAQYVESGLPLGYLFYNDEEELEEYKPLFTELAKKNRGLMNFVSIDARKFGRHAGNLNMKEQFPLFAIHDMTEDLKYGLPQLSEEAFDELSDKIVLESKAIESLVKDFLKGDASPIVKSQEIFENQDSSVFQLVGKNHDEIVNDPKKDVLVLYYAPWCGHCKRLAPTYQELADTYANATSDVLIAKLDHTENDVRGVVIEGYPTIVLYPGGKKSESVVYQGSRSLDSLFDFIKENGHFDVDGKALYEEAQEKAAEEADADAELADEEDAIHDEL [C61A;C64A]
4 | decreasing interaction | MKFSAGAVLSWSSLLLASSVFAQQEAVAPEDSAVVKLATDSFNEYIQSHDLVLAEFFAPWCGHCKNMAPEYVKAAETLVEKNITLAQIDCTENQDLCMEHNIPGFPSLKIFKNSDVNNSIDYEGPRTAEAIVQFMIKQSQPAVAVVADLPAYLANETFVTPVIVQSGKIDADFNATFYSMANKHFNDYDFVSAENADDDFKLSIYLPSAMDEPVVYNGKKADIADADVFEKWLQVEALPYFGEIDGSVFAQYVESGLPLGYLFYNDEEELEEYKPLFTELAKKNRGLMNFVSIDARKFGRHAGNLNMKEQFPLFAIHDMTEDLKYGLPQLSEEAFDELSDKIVLESKAIESLVKDFLKGDASPIVKSQEIFENQDSSVFQLVGKNHDEIVNDPKKDVLVLYYAPWAGHAKRLAPTYQELADTYANATSDVLIAKLDHTENDVRGVVIEGYPTIVLYPGGKKSESVVYQGSRSLDSLFDFIKENGHFDVDGKALYEEAQEKAAEEADADAELADEEDAIHDEL [C406A;C409A]
